Target: T1, chimeric Nb_An05-Fc HCAb (Nb_An05 fused to the hinge and Fc-domain of human IgG1) (camelid)
T1 construct: also called synthetic HCAb; reconstituted HCAb; not shown: Fc (human IgG1, including the hinge), C-terminal, kept
Assay: ELISA; format not told; Nb_An05-Fc HCAb on the VSG antigen
Details: both partners purified

B1: purified soluble AnTat1.1 VSG (variant-specific surface glycoprotein of Trypanosoma brucei AnTat1.1) (natural protein)
chain: QTAGRPLADVVGKTLCTYSKTAKRQAANLAQTLQRASSAAKQSRQAQQLAALALAKLPDYKEAAATLLIYATHKIQDAQASIENWTGENTKLVGQAMYSSGRIDELMLLLEGHREDGANGQDKTCLGAAAGGNTVNEFVKTECDTESGHNIEADNSNIGQAATTLSQESTDPEASGGASCKITANLATDYDSHANELPLLGGLLTIHNAGGFKTGQSLQTAAPTNKLISALKNKGAGVAAKLATVTSAAPTSKQELKTLLASKGERAKLQAANDEYNNWKPGAKPEDFDAHIKKVFGAEDGKDSAYAIALEGISIEAPLGGGQTQNKQLYSMQPKDLMAALIGTIAELQTAAATKPACPGHKQTTTESDALCSKIKDANECNSKHFCSYNGTETDSAKKCKYNATKASASDAPVTQAQTTSRSETPAEKCTGKKKDDCKDGCKWEAETCKD
Question: Does B1 bind?
Answer: binds

Reference: article PMC3116811 (PLoS Pathogens, 2011)
